Target: T1, biotin-labelled EZH2 protein (UniProt Q15910 1-746, limits assumed, biotin label (EZ-link NHS-PEO4-Biotinylation kit))
T1 construct: Probe in solution (1 ug/ml) on the KDM2B peptide microarray; also called NHS-PEO4-Biotinylation-labelled EZH2 protein; recombinant protein
Test: KDM2B peptide array probed with biotin-EZH2 1 ug/ml, SA-HRP/ECL;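 note: Background-corrected optical density of each spot on the membrane, given as percent of the brightest spot (100%), color developed for 5 minutes; 100% is the highest background-corrected spot optical density on the membrane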
Protocol: After blocking, the polypeptide microarray was incubated with biotin-labeled target protein for hybridization, visualized with the chemical chromogenic substrate and imaged using a Chempchemi digital imager. The image of colored polypeptide microarray was analyzed for the optical density of the colored points. Particularly, the optical density of each colored point was calculated using the optical density of the respective surrounding background as a reference for background correction. The highest optical density value of the colored point on membrane was set to 100%, and the optical density value of the remaining colored points was converted into percentages relative to the highest value. The points with an optical density percentage of more than 30% on the polypeptide membrane and also with an optical density percentage of less than 30% on the negative membrane were defined as positive colored points.
For the hybridization experiment, a solution of NHS-PEO4-Biotinylation-labelled EZH2 protein (1 μg/ml) was used for the hybridization of the polypeptide microarray. Streptavidin-HRP was used to amplify the reaction signal according to the experimental procedure and conditions described above, and the time of color development was 5 minutes.

T1 sequence (Q15910 whole entry): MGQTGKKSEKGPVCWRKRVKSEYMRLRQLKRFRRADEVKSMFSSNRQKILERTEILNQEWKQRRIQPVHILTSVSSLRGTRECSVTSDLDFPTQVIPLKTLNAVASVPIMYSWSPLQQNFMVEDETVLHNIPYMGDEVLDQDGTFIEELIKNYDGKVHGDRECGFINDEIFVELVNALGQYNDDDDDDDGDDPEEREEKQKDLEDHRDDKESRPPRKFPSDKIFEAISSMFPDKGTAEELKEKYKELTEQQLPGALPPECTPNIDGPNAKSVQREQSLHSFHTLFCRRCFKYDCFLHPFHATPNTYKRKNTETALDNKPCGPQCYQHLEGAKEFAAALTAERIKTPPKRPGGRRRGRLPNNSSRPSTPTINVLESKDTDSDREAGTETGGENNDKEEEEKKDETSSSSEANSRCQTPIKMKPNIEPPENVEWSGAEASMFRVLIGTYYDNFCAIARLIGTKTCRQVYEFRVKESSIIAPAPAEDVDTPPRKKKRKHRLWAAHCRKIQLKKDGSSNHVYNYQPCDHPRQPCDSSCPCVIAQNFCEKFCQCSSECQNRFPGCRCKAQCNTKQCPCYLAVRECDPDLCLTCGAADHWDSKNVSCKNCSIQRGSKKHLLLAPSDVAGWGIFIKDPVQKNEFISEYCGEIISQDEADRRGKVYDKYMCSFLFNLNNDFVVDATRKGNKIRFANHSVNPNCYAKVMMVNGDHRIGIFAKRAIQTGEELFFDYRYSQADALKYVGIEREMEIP

Row | Binder | Intensity (%)
1 | KGKLGPASAVKLAAN [peptide 118] | 0%
2 | PPDGLLRRKSDDVHL [peptide 158] | 0%
3 | QKMNRDNKEGQEPAK [peptide 151] | 100%
4 | RSSLTYFQQQLKPGK [peptide 170] | 2.26%
5 | LRRKSDDVHLRKKRK [peptide 159] | 0%
6 | GSSSHLSPRPPLGSS [peptide 166] | 0.84%
7 | WTHLTEFELKGLKAL [peptide 102] | 0%
8 | YEKPQELSGRKRASS [peptide 162] | 0%
9 | GSPATEVSAKWTHLT [peptide 100] | 0%
10 | GEAGKEDTVEEEEGK [peptide 134] | 0%
11 | GVPVVTWPKKTPKNR [peptide 114] | 0%
12 | LSPWWRSSLTYFQQQ [peptide 169] | 0%
13 | ARRRRTRCRKCEACL [peptide 122] | 100%
14 | SWKNAEDRMALANKP [peptide 175] | 0%
15 | EEKLRSQLYQGDFVH [peptide 15] | 0%
16 | TPKNRAVGRPKGKLG [peptide 116] | 0%
17 | EDKLFRKKRRSWKNA [peptide 173] | 0%
18 | GDFVHAMEGKDFNYE [peptide 17] | 0%
19 | QEPAKRRSECEEAPR [peptide 153] | 41.6%
20 | PLGSSLSPWWRSSLT [peptide 168] | 0%
21 | FGGPGRMKQSCIMRQ [peptide 128] | 0%
22 | DRQRYDENEDLSDVE [peptide 10] | 0%
23 | CWECPKCNHAGKTGK [peptide 144] | 0%
24 | DELPNCWECPKCNHA [peptide 143] | 0%

Row | Binder | Intensity (%)
25 | AVGRPKGKLGPASAV [peptide 117] | 0%
26 | GLKALVEKLESLPEN [peptide 104] | 8.01%
27 | LKPGKEDKLFRKKRR [peptide 172] | 0%
28 | FNLMLMECSICNEII [peptide 137] | 0.24%
29 | MAGPQMGGSAEDHPP [peptide 1] | 0.25%
30 | GFKYASNLPGSLLKE [peptide 148] | 0%
31 | LSPRPPLGSSLSPWW [peptide 167] | 0%
32 | PASAVKLAANRTTAG [peptide 119] | 0%
33 | VEKLESLPENKKCVP [peptide 105] | 20.3%
34 | RTTAGARRRRTRCRK [peptide 121] | 1.31%
35 | CIAPVLPHTAVCLVC [peptide 131] | 100%
36 | KLAANRTTAGARRRR [peptide 120] | 0%
37 | RTECGECHFCKDMKK [peptide 125] | 1.57%
38 | VLKEHADDDPSLAIT [peptide 111] | 0.99%
39 | RKKRRSWKNAEDRMA [peptide 174] | 0.47%
40 | TWPKKTPKNRAVGRP [peptide 115] | 0%
41 | EGVKNVLKEHADDDP [peptide 110] | 0%
42 | LSDVEEIVSVRGFSL [peptide 12] | 0.13%
43 | QKRGPGFKYASNLPG [peptide 147] | 0%
44 | EGIEDPQALLEGVKN [peptide 108] | 0%
45 | EGVVNDELPNCWECP [peptide 142] | 100%
46 | EEEGKFNLMLMECSI [peptide 136] | 0%
47 | RKKRKYEKPQELSGR [peptide 161] | 0%
48 | EFELKGLKALVEKLE [peptide 103] | 4.44%

Row | Binder | Intensity (%)
49 | RRSDEHSKKVPPDGL [peptide 156] | 0%
50 | ECHFCKDMKKFGGPG [peptide 126] | 6.05%
51 | MECSICNEIIHPGCL [peptide 138] | 26.8%
52 | TRCRKCEACLRTECG [peptide 123] | 97.3%
53 | SLAITGVPVVTWPKK [peptide 113] | 1.55%
54 | CNEIIHPGCLKIKES [peptide 139] | 85.1%
55 | KIKESEGVVNDELPN [peptide 141] | 10.8%
56 | KKCVPEGIEDPQALL [peptide 107] | 0%
57 | CEACLRTECGECHFC [peptide 124] | 0%
58 | SQLYQGDFVHAMEGK [peptide 16] | 1.87%
59 | RMKQSCIMRQCIAPV [peptide 129] | 9.37%
60 | DENEDLSDVEEIVSV [peptide 11] | 0%
61 | SLPENKKCVPEGIED [peptide 106] | 3.77%
62 | VCLVCGEAGKEDTVE [peptide 133] | 12%
63 | HSKKVPPDGLLRRKS [peptide 157] | 18.4%
64 | DNKEGQEPAKRRSEC [peptide 152] | 97.8%
65 | YFQQQLKPGKEDKLF [peptide 171] | 0%
66 | EVSAKWTHLTEFELK [peptide 101] | 2.69%
67 | ADDDPSLAITGVPVV [peptide 112] | 0%
68 | EDRMALANKPLRRFK [peptide 176] | 0%
69 | HPGCLKIKESEGVVN [peptide 140] | 0%
70 | LPHTAVCLVCGEAGK [peptide 132] | 100%
71 | PQALLEGVKNVLKEH [peptide 109] | 0%
